Patent publication US20230257472A1 (JIANGSU HENGRUI MEDICINE, published 2023)

Tests used:
[1] = molecular target: T1, His-tagged CD70 protein extracellular domain (His-TNC-CD70) (human); experiment: SPR Biacore T200, antibody captured by anti-human Fc, His-TNC-CD70 in flow, 1:1 model
T1 construct: Expressed in 293 cells; also called human His-TNC-CD70 antigen; human CD70 antigen
T1 chain: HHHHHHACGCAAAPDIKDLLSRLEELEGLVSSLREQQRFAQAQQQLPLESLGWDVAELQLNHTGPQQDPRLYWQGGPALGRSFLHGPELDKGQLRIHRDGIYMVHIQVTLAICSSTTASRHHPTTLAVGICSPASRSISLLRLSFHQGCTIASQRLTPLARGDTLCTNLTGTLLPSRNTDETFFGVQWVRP
Procedure: The affinity of the chimeric and humanized antibodies of the present disclosure for the human CD70 antigen was tested using a Biacore instrument. The procedures are as follows:
The human Fc capture molecules were covalently coupled to a CM5 biosensor chip (CAT #BR-1005-30, GE) according to the method described in the instructions of the human Fc capture kit (CAT #BR-1008-39, GE) for affinity capture of the antibodies to be tested. Then, a human His-TNC-CD70 antigen (set forth in SEQ ID NO: 1) flowed through the surface of the chip, and the reaction signal was detected in real time using a Biacore T200 instrument to obtain association and dissociation curves. After the dissociation was completed for each cycle, the biochip was washed and regenerated with a regeneration solution configured in the human antibody capture kit (GE). Data were fitted using a 1:1 model.

[2] = molecular target: T2, human CD70 on cells (CD70-positive 786-O cells, Raji cells, CHO-S cells expressing human full-length CD70, … (human, UniProt P32970 1-193)); experiment: cell-based or functional assay
T2 sequence (looked up): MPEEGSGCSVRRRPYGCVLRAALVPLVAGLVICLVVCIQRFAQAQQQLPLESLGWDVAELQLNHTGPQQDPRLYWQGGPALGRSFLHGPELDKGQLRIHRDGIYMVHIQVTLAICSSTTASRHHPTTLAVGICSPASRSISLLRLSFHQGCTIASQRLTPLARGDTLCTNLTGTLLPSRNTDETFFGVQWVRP

[3] = molecular target: T2, human CD70 on cells (CD70-positive …); experiment: flow cytometry on CD70-positive Raji cells, Alexa Fluor 488 goat anti-human (H+L) detection
Procedure: (§1) 786-O cells (ATCC, CRL-1932) or Raji cells (ATCC, CCL-86) at 1×10⁶ cells/mL were blocked with 1% BSA PBS buffer, followed by the addition of diluted anti-CD70 antibody samples at different concentrations were added, and the mixture was incubated for 1 h. After the plate was washed twice, Alexa Fluor 488-goat anti-human (H+L) antibody (Invitrogen, CAT #A 11013) was added, and the mixture was incubated for 1 h. After the plate was washed twice, fluorescence signals were read using a flow cytometer.

[4] = molecular target: T2, human CD70 on cells (CD70-positive …); experiment: flow cytometry on CD70-positive 786-O cells, Alexa Fluor 488 goat anti-human (H+L) detection
Procedure: as §1

[5] = molecular target: T2, human CD70 on cells (CD70-positive …); experiment: flow cytometry competition on CHO-S cells expressing human full-length CD70; blocked ligand: biotin-labeled CD27-Fc, Alexa Fluor 488 streptavidin detection
Procedure: The cell-blocking activity of the anti-CD70 antibodies was assayed by flow cytometry. CHO-S cells expressing human full-length CD70 (Invitrogen, R80007) at 1×10⁶ cells/mL were blocked with 1% BSA PBS buffer, followed by the addition with diluted anti-CD70 antibody samples at different concentrations and biotin-labeled CD27-Fc (set forth in SEQ ID NO: 84), and the mixture was incubated for 1 h. After the plate was washed twice, Alexa Fluor 488-streptavidin (Invitrogen, CAT #S11223) was added, and the mixture was incubated for 1 h. After the plate was washed twice, fluorescence signals were read using a flow cytometer.

B1: CHF4 (chimeric antibody of F4) (antibody, human IgG1, kappa, V domains shown)
VH: QVQLKQSGAELVKPGASVKMSCKASGDTFPRYNMHWLKQTPGQGLEWIGAIFPGNGETSYNQNFKGKATLTADKSSSTAYMQLNSLTSEDSAVYYCARNSYYDYAWFTYWGQGTLVTVSA
VL: DIVMTQSPASLDVSLGQRATISCRASKSVSSSGYSFMHWYQQKPGQPPKLLISLASNLESGVPARFSGSGSGTDFTLTIYPVEEEDAATYYCQHSREFPPTFGSGTKLEIKR
notes: Murine variable regions on human IgG1 / human light chain constant regions
Kd [1]: 0.0375 nM
koff [1]: 8.37e-05 s⁻¹
kon [1]: 2.23e+06 M⁻¹ s⁻¹

B2: 41D12 (positive control antibody, see WO2012123586) (antibody, human IgG1, lambda, V domains shown)
VH: EVQLVESGGGLVQPGGSLRLSCAASGFTFSVYYMNWVRQAPGKGLEWVSDINNEGGTTYYADSVKGRFTISRDNSKNSLYLQMNSLRAEDTAVYYCARDAGYSNHVPIFDSWGQGTLVTVSS
VL: QAVVTQEPSLTVSPGGTVTLTCGLKSGSVTSDNFPTWYQQTPGQAPRLLIYNTNTRHSGVPDRFSGSILGNKAALTITGAQADDEAEYFCALFISNPSVEFGGGTQLTVLG
IC50 (ng/mL), inhibition of IL-8 secretion mediated by CD70/CD27 binding (U266 cells + HT1080/CD27 cells) [2]: 23.3 ng/mL
Imax (%), maximum inhibition rate of IL-8 secretion from CD27 cells [2]: 70.9%
EC50 (read off the curve) [3]: ~0.01 µg/mL
EC50 (read off the curve) [4]: ~0.03 µg/mL

B3: 41D12 (afuc) (antibody, human IgG1, lambda, V domains shown)
VH: EVQLVESGGGLVQPGGSLRLSCAASGFTFSVYYMNWVRQAPGKGLEWVSDINNEGGTTYYADSVKGRFTISRDNSKNSLYLQMNSLRAEDTAVYYCARDAGYSNHVPIFDSWGQGTLVTVSS
VL: QAVVTQEPSLTVSPGGTVTLTCGLKSGSVTSDNFPTWYQQTPGQAPRLLIYNTNTRHSGVPDRFSGSILGNKAALTITGAQADDEAEYFCALFISNPSVEFGGGTQLTVLG
modifications: non-fucosylated (heavy chain not modified by fucosylation)
notes: also called non-fucosylated antibody of 41D12
IC50 (ng/mL), inhibition of IL-8 secretion mediated by CD70/CD27 binding (U266 cells + HT1080/CD27 cells) [2]: 24.2 ng/mL
Imax (%), maximum inhibition rate of IL-8 secretion from CD27 cells [2]: 71.1%
EC50 (read off the curve) [3]: ~0.04 µg/mL
EC50 (read off the curve) [4]: ~0.03 µg/mL

B4: CHB1 (chimeric antibody of B1) (antibody, human IgG1, kappa, V domains shown)
VH: QVQMQQSGAELVKPGASVMMSCKASGYTFTTYNIHWIKQTPGQGLEWIGDIYPGNGDASYNQKFRDRATLTADRSSSTAYLQLSSLTSEDSAIYYCATFSRFDGWFAYWGQGTLVTVSA
VL: DIVMSQSPASLAVSLGQRATISCRASRSVSTSGYSYMHWYQQKPGQPPKLLIYLASNLESGVPARFSGSGSGTNFTLNIHPVEEEDAATYYCQHSRELPYTFGGGTKLEIKR
notes: as for B1
Kd [1]: 0.0334 nM
koff [1]: 7.54e-05 s⁻¹
kon [1]: 2.26e+06 M⁻¹ s⁻¹

B5: huB7002 (afuc) (antibody, human IgG1, kappa, V domains shown)
VH: EVQLVQSGSELKKPGASVKVSCKASGYTFTNYGMNWVRQAPGQGLEWMGWINTYTGEPTYADEFKGRFVFSLDTSVSTAYLQISSLKAEDTAVYYCARGDSFTTEILRNWYFDVWGQGTTVTVSS
VL: DIQMTQSPSSLSASVGDRVTITCGASENIYGALNWYQQKPGKVPKLLIYGATNLADGVPSRFSGSGSGTDFTLTISSLQPEDVATYYCQNVLSTPWTFGGGTKVEIKR
modifications: non-fucosylated (heavy chain not modified by fucosylation)
notes: also called non-fucosylated antibody of huB7002
IC50 (ng/mL), inhibition of IL-8 secretion mediated by CD70/CD27 binding (U266 cells + HT1080/CD27 cells) [2]: 19.8 ng/mL
Imax (%), maximum inhibition rate of IL-8 secretion from CD27 cells [2]: 91.7%
IC50 (read off the curve) [5]: ~0.4 µg/mL

B6: huF4011 (afuc) (antibody, human IgG1, kappa, V domains shown)
VH: EVQLVQSGAEVKKPGSSVKVSCKASGDTFPRYNMHWVRQAPGQGLEWMGAIFPGTGETSYNQNFKGRVTLTADKSTSTAYMELSSLRSEDTAVYYCARNSYYDYAWFTYWGQGTLVTVSS
VL: DIVMTQSPDSLAVSLGERATINCRASKSVSSSGYSFMHWYQQKPGQPPKLLISLADNLESGVPDRFSGSGSGTDFTLTISSLQAEDVAVYYCQHSREFPPTFGQGTKLEIKR
modifications: non-fucosylated (heavy chain not modified by fucosylation)
notes: also called non-fucosylated antibody of huF4011
IC50 (ng/mL), inhibition of IL-8 secretion mediated by CD70/CD27 binding (U266 cells + HT1080/CD27 cells) [2]: 13 ng/mL
Imax (%), maximum inhibition rate of IL-8 secretion from CD27 cells [2]: 92.3%
EC50 (read off the curve) [3]: ~0.02 µg/mL
EC50 (read off the curve) [4]: ~0.02 µg/mL
IC50 (read off the curve) [5]: ~0.3 µg/mL

B7: huB1026 (antibody, human IgG1, kappa, V domains shown)
VH: EVQMVQSGAEVKKPGASVKVSCKASGYTFTTYNIHWVRQAPGQGLEWMGDIYPGNGDASYNQKFRDRVTMTRDTSTSTVYMELSSLRSEDTAVYYCATFSRFDGWFAYWGQGTLVTVSS
VL: DIVMTQSPDSLAVSLGERATINCRASRSVSTSGYSYMHWYQQKPGQPPKLLIYLASNLESGVPDRFSGSGSGTDFTLTISSLQAEDVAVYYCQHSRELPYTFGGGTKVEIKR
notes: Humanized IgG1
Kd [1]: 0.0503 nM
koff [1]: 9.62e-05 s⁻¹
kon [1]: 1.91e+06 M⁻¹ s⁻¹

B8: huB1010 (afuc) (antibody, human IgG1, kappa, V domains shown)
VH: EVQMVQSGAEVKKPGASVKVSCKASGYTFTTYNIHWVRQAPGQGLEWMGDIYPGTGDASYNQKFRDRVTMTRDTSTSTVYMELSSLRSEDTAVYYCATFSRFDGWFAYWGQGTLVTVSS
VL: DIVMTQSPDSLAVSLGERATINCRASRSVSTSGYSYMHWYQQKPGQPPKLLIYLADNLESGVPDRFSGSGSGTDFTLTISSLQAEDVAVYYCQHSRELPYTFGGGTKVEIKR
modifications: non-fucosylated (heavy chain not modified by fucosylation)
notes: also called non-fucosylated antibody of huB1010
EC50 (read off the curve) [3]: ~0.02 µg/mL
EC50 (read off the curve) [4]: ~0.02 µg/mL
IC50 (read off the curve) [5]: ~0.3 µg/mL

B9: huB1038 (antibody, human IgG1, kappa, V domains shown)
VH: EVQMVQSGAEVKKPGASVKVSCKASGYTFTTYNIHWVRQAPGQGLEWMGDIYPGNGDASYNQKFRDRVTMTRDTSTSTVYMELSSLRSEDTAVYYCATFSRFDGWFAYWGQGTLVTVSS
VL: DIVMSQSPDSLAVSLGERATINCRASRSVSTSGYSYMHWYQQKPGQPPKLLIYLASNLESGVPDRFSGSGSGTNFTLTISSLQAEDVAVYYCQHSRELPYTFGGGTKVEIKR
notes: Humanized IgG1
Kd [1]: 0.0561 nM
koff [1]: 0.000101 s⁻¹
kon [1]: 1.8e+06 M⁻¹ s⁻¹

B10: huF4026 (antibody, human IgG1, kappa, V domains shown)
VH: EVQLVQSGAEVKKPGSSVKVSCKASGDTFPRYNMHWVRQAPGQGLEWMGAIFPGNGETSYNQNFKGRVTITADKSTSTAYMELSSLRSEDTAVYYCARNSYYDYAWFTYWGQGTLVTVSS
VL: DIVMTQSPDSLAVSLGERATINCRASKSVSSSGYSFMHWYQQKPGQPPKLLIYLASNLESGVPDRFSGSGSGTDFTLTISSLQAEDVAVYYCQHSREFPPTFGQGTKLEIKR
notes: Humanized IgG1
Kd [1]: 0.0392 nM
koff [1]: 9.56e-05 s⁻¹
kon [1]: 2.44e+06 M⁻¹ s⁻¹

B11: huB1025 (antibody, human IgG1, kappa, V domains shown)
VH: EVQLVQSGAEVKKPGASVKVSCKASGYTFTTYNIHWVRQAPGQGLEWMGDIYPGNGDASYNQKFRDRVTMTRDTSTSTVYMELSSLRSEDTAVYYCARFSRFDGWFAYWGQGTLVTVSS
VL: DIVMTQSPDSLAVSLGERATINCRASRSVSTSGYSYMHWYQQKPGQPPKLLIYLASNLESGVPDRFSGSGSGTDFTLTISSLQAEDVAVYYCQHSRELPYTFGGGTKVEIKR
notes: Humanized IgG1
Kd [1]: 0.0462 nM
koff [1]: 0.000154 s⁻¹
kon [1]: 3.33e+06 M⁻¹ s⁻¹

B12: huB1037 (antibody, human IgG1, kappa, V domains shown)
VH: EVQLVQSGAEVKKPGASVKVSCKASGYTFTTYNIHWVRQAPGQGLEWMGDIYPGNGDASYNQKFRDRVTMTRDTSTSTVYMELSSLRSEDTAVYYCARFSRFDGWFAYWGQGTLVTVSS
VL: DIVMSQSPDSLAVSLGERATINCRASRSVSTSGYSYMHWYQQKPGQPPKLLIYLASNLESGVPDRFSGSGSGTNFTLTISSLQAEDVAVYYCQHSRELPYTFGGGTKVEIKR
notes: Humanized IgG1
Kd [1]: 0.0407 nM
koff [1]: 0.00016 s⁻¹
kon [1]: 3.93e+06 M⁻¹ s⁻¹

B13: huF4028 (antibody, human IgG1, kappa, V domains shown)
VH: EVQLVQSGAEVKKPGSSVKVSCKASGDTFPRYNMHWLKQAPGQGLEWMGAIFPGNGETSYNQNFKGRVTLTADKSTSTAYMELSSLRSEDTAVYYCARNSYYDYAWFTYWGQGTLVTVSS
VL: DIVMTQSPDSLAVSLGERATINCRASKSVSSSGYSFMHWYQQKPGQPPKLLIYLASNLESGVPDRFSGSGSGTDFTLTISSLQAEDVAVYYCQHSREFPPTFGQGTKLEIKR
notes: Humanized IgG1
Kd [1]: 0.0412 nM
koff [1]: 0.000106 s⁻¹
kon [1]: 2.56e+06 M⁻¹ s⁻¹
